Test results taken from PMC11187071, “The binding mechanism of an anti-multiple myeloma antibody to the human GPRC5D homodimer” (Nature Communications, 2024).

Legend:
[1] = target: the molecule itself; test: cryo-EM structure; GPRC5D and scFv150_18 co-expressed in Hi5 insect cells, complex purified by TALON IMAC and Superdex 200 in LMNG/CHS, 20 mM HEPES pH 7.4, 100 mM NaCl; C2 symmetry, 3.34 Å
[2] = target: T1, WT GPRC5D expressed on HEK293T cells (Homo sapiens, UniProt Q9NZD1); test: flow cytometry on cells; HEK293T cells transiently transfected with WT or mutated GPRC5D, incubated with purified IgG150_18 at different concentrations for 60 min, detected with goat anti-human IgG (Fc specific)-FITC at 4 °C; % of total, normalized to expression level; conditions: one partner purified
T1 construct: human GPRC5D, UniProt Q9NZD1; also called GPRC5D-WT; source: HEK293T, transiently transfected, on cells

B1: human GPRC5D (residues 1-298) with N-terminal BRIL fusion, cryo-EM construct (receptor, UniProt Q9NZD1 1-298, looked up)
chain: MYKDCIESTGDYFLLCDAEGPWGIILESLAILGIVVTILLLLAFLFLMRKIQDCSQWNVLPTQLLFLLSVLGLFGLAFAFIIELNQQTAPVRYFLFGVLFALCFSCLLAHASNLVKLVRGCVSFSWTTILCIAIGCSLLQIIIATEYVTLIMTRGMMFVNMTPCQLNVDFVVLLVYVLFLMALTFFVSKATFCGPCENWKQHGRLIFITVLFSIIIWVVWISMLLRGNPQFQRQPQWDDPVVCIALVTNAWVFLLLYIVPELCILYRSCRQECPLQGNACPVTAYQHSFQVENQELSR
notes: human GPRC5D, UniProt Q9NZD1, residues 1-298; Order at the N-terminus as printed: haemagglutinin signal peptide, Flag tag, BRIL, then GPRC5D 1-298, HRV 3C site, 10x His; Membranes were treated with iodoacetamide before solubilisation; also called hGPRC5D; GPRC5D homodimer; not shown: BRIL (thermostabilized E. coli apocytochrome b562RIL), N-terminal, kept; 10x His, C-terminal, kept
stoichiometry N [1]: 2

B2: IgG150-18 with a single mutation at Y228 (HCDR2) (antibody, V domains shown)
VH: QVQLVESGGGLVHPGGSLRLSCAASGFTFRSHSMNWVRQAPGKGLEWVSSISSDSTYTAYADSVKGRFTISRDNAKNSLYLQMNSLRAEDTAVYYCARSGGQWKYYDYWGQGTLVTVSS
VL: SSELTQDPAVSVALGQTVRITCQGDSLRSYYASWYQQKPGQAPVLVIYGKNNRPSGIPDRFSGSSSGNTASLTITGAQAEDEADYYCNSRDSSGNPPVVFGGGTKLTVL
notes: as the heavy chain variable domain of m3 (from scFv m2, PDB 8YZK) with a single mutation at Y228 (HCDR2; number as printed for the scFv); human IgG heavy chain constant region; as the light chain of m3; Residue number counts as in the scFv structure, not on the IgG heavy chain; also called Y228 mutant antibody; source: HEK-293F, transfected, purified (protein A, Superdex 200)
binding result [2]: binds

B3: IgG150-18 (scFv150-18 cloned into human IgG format) (antibody, V domains shown)
VH: QVQLVESGGGLVHPGGSLRLSCAASGFTFRSHSMNWVRQAPGKGLEWVSSISSDSTYTYYADSVKGRFTISRDNAKNSLYLQMNSLRAEDTAVYYCARSGGQWKYYDYWGQGTLVTVSS
VL: SSELTQDPAVSVALGQTVRITCQGDSLRSYYASWYQQKPGQAPVLVIYGKNNRPSGIPDRFSGSSSGNTASLTITGAQAEDEADYYCNSRDSSGNPPVVFGGGTKLTVL
notes: heavy chain variable domain as in the scFv m2 (PDB 8YZK); human IgG heavy chain constant region; light chain variable domain as in the scFv m2 (PDB 8YZK); human light chain constant region; also called antibody150_18; scFv150_18 in its IgG format; source: HEK-293F, transfected, purified (protein A, Superdex 200)
EC50 [2]: ~4.6 nM
